In patent US20230174609A1, “EXTENDED TIME ACTION ACYLATED INSULIN COMPOUNDS” (Eli Lilly and Company, priority 2020, published 2023):

Columns and labels:
[1] = target: human insulin receptor subtype B (hIR-B) containing a C-terminal C9 tag (human) (UniProt P06213); assay: cell-based or functional assay
[2] = target: human insulin receptor subtype A (hIR-A) (human) (UniProt P06213); assay: cell-based or functional assay
[3] = target: human insulin receptor subtype B (hIR-B) containing a C-terminal C9 tag (human) (UniProt P06213); assay: SPA competitive radioligand binding, hIR-B membranes, 0.1% BSA
[4] = target: human insulin receptor subtype B (hIR-B) containing a C-terminal C9 tag (human) (UniProt P06213); assay: SPA competitive radioligand binding, hIR-B membranes, 0.1% HSA
[5] = target: human insulin receptor subtype B (hIR-B) containing a C-terminal C9 tag (human) (UniProt P06213); assay: SPA competitive radioligand binding, hIR-B membranes, 0.001% NP-40

receptor tyrosine auto-phosphorylation in HEK293 cells, ELISA, EC50, 0.1% BSA [1] [nM]	receptor tyrosine auto-phosphorylation in HEK293 cells, ELISA, EC50, 0.1% BSA [2] [µM]	receptor tyrosine auto-phosphorylation in HEK293 cells, ELISA, EC50, 0.1% Casein [2] [nM]	receptor tyrosine auto-phosphorylation in HEK293 cells, ELISA, EC50, 0.1% Casein [1] [nM]	Ki [3] [nM]	Ki [4] [nM]	Ki [5] [nM]	Substance
1560	2.55	588					Example 1 (A14E, B16H, B25H, desB30 human insulin acylated at Lys B29 with HO2C-(CH2)18-CO-γGlu-γGlu-γGlu-Lys-Gly-) (ligand)
1790	3.04	478					Example 2 (A14E, B16H, B25H, desB30 human insulin acylated at Lys B29 with HO2C-(CH2)18-CO-γGlu-γGlu-γGlu-Lys-(2-[2-(2-aminoethoxy)ethoxy]acetic acid)-) (ligand)
1220	3.18	627	183				Example 3 (A14E, B16H, B25H, desB30 human insulin acylated at Lys B29 with HO2C-(CH2)18-CO-γGlu-γGlu-γGlu-εLys-Gly-) (ligand)
771			577	67.3	54.3	86.1	insulin-like growth factor 1 (IGF-1) (from UniProt P05019 49-118) (ligand)
